Source: patent US10487121B2, “D-peptide inhibitors of HIV entry and methods of use” (priority 2016, dated 2019)
Like-named read-outs stand apart in the source and are kept apart here.

Test: Rodent pharmacokinetics of PIE12-trimer and conjugates (Table 3 protocol)
Type: in vivo, Sprague Dawley rats
Details: rats; for bioavailability: Sprague Dawley; for bioavailability / AUC(0-inf) / C0 / clearance / half-life / Vd / Cmax / Tmax: rat; for AUC(0-inf) / C0 / clearance / half-life / Vd / Cmax / Tmax: in vivo; for clearance: read-out: Cl (obs) (converted); for half-life: read-out: T1/2 (converted); for Vd: read-out: Vz (obs)
Experimental: At each timepoint, plasma was obtained using lithium heparin.
Samples were spiked with an internal standard then precipitated with two volumes of 98% acetonitrile/2% Formic acid. Supernatants were analyzed by LC/MS/MS using an Agilent HPLC system (Waters X-Bridge BEH C18 column) paired to an AB Sciex API 3000 triple-quad mass spectrometer using MRM methods. Lipid conjugates required lower source temperatures (300° C. vs 500° C.) for improved reproducibility.

CCCCCCCCCCCCCCCCSC1CC(=O)N(CCC(=O)NCCOCCOCCOCCOCCOCCOCCOCCOCCOCCOCCOCCOCCOCCOCCOCCOCCOCCOCCOCCOCCOCCOCCOCCOCCC(=O)NC(COCCC(=O)NCCOCCOCCOCCOCCC(=O)NCCCC[C@@H](NC(=O)CNC(=O)[C@@H](CC(C)C)NC(=O)[C@@H](CCC(=O)O)NC(=O)[C@H]2CSSC[C@@H](NC(=O)[C@H]3CCCN3C(=O)[C@@H](Cc3c[nH]cn3)NC(C)=O)C(=O)N[C@H](CC(=O)O)C(=O)N[C@H](Cc3ccc(O)cc3)C(=O)N3CCC[C@@H]3C(=O)N[C@H](CCC(=O)O)C(=O)N[C@H](Cc3c[nH]c4ccccc34)C(=O)N[C@H](CCC(N)=O)C(=O)N[C@H](Cc3c[nH]c4ccccc34)C(=O)N[C@H](CC(C)C)C(=O)N2)C(N)=O)(COCCC(=O)NCCOCCOCCOCCOCCC(=O)NCCCC[C@@H](NC(=O)CNC(=O)[C@@H](CC(C)C)NC(=O)[C@@H](CCC(=O)O)NC(=O)[C@H]2CSSC[C@@H](NC(=O)[C@H]3CCCN3C(=O)[C@@H](Cc3c[nH]cn3)NC(C)=O)C(=O)N[C@H](CC(=O)O)C(=O)N[C@H](Cc3ccc(O)cc3)C(=O)N3CCC[C@@H]3C(=O)N[C@H](CCC(=O)O)C(=O)N[C@H](Cc3c[nH]c4ccccc34)C(=O)N[C@H](CCC(N)=O)C(=O)N[C@H](Cc3c[nH]c4ccccc34)C(=O)N[C@H](CC(C)C)C(=O)N2)C(N)=O)COCCC(=O)NCCOCCOCCOCCOCCC(=O)NCCCC[C@@H](NC(=O)CNC(=O)[C@@H](CC(C)C)NC(=O)[C@@H](CCC(=O)O)NC(=O)[C@H]2CSSC[C@@H](NC(=O)[C@H]3CCCN3C(=O)[C@@H](Cc3c[nH]cn3)NC(C)=O)C(=O)N[C@H](CC(=O)O)C(=O)N[C@H](Cc3ccc(O)cc3)C(=O)N3CCC[C@@H]3C(=O)N[C@H](CCC(=O)O)C(=O)N[C@H](Cc3c[nH]c4ccccc34)C(=O)N[C@H](CCC(N)=O)C(=O)N[C@H](Cc3c[nH]c4ccccc34)C(=O)N[C@H](CC(C)C)C(=O)N2)C(N)=O)C1=O (stereo partly shown) [C16-PIE12-Trimer]
bioavailability (SC, 1.0 mg/kg, plasma, median): 38% | AUC(0-inf) (IV, 1.0 mg/kg, plasma, median): 1.16 µM·h | C0 (IV, 1.0 mg/kg, plasma, median): 1880 nM | clearance (IV, 1.0 mg/kg, plasma, median): 1.67 mL/min/kg | half-life (IV, 1.0 mg/kg, plasma, median): 0.93 h | Vd (IV, 1.0 mg/kg, plasma, median): 0.14 L/kg | AUC(0-inf) (SC, 1.0 mg/kg, plasma, median): 0.442 µM·h | Cmax (SC, 1.0 mg/kg, plasma, median): 192 nM | Tmax (SC, 1.0 mg/kg, plasma, median): 1 h | half-life (SC, 1.0 mg/kg, plasma, median): 1.18 h

CCCCCCCCCCCCCCCCCCSC1CC(=O)N(CCC(=O)NCCOCCOCCOCCOCCOCCOCCOCCOCCOCCOCCOCCOCCOCCOCCOCCOCCOCCOCCOCCOCCOCCOCCOCCOCCC(=O)NC(COCCC(=O)NCCOCCOCCOCCOCCC(=O)NCCCC[C@@H](NC(=O)CNC(=O)[C@@H](CC(C)C)NC(=O)[C@@H](CCC(=O)O)NC(=O)[C@H]2CSSC[C@@H](NC(=O)[C@H]3CCCN3C(=O)[C@@H](Cc3c[nH]cn3)NC(C)=O)C(=O)N[C@H](CC(=O)O)C(=O)N[C@H](Cc3ccc(O)cc3)C(=O)N3CCC[C@@H]3C(=O)N[C@H](CCC(=O)O)C(=O)N[C@H](Cc3c[nH]c4ccccc34)C(=O)N[C@H](CCC(N)=O)C(=O)N[C@H](Cc3c[nH]c4ccccc34)C(=O)N[C@H](CC(C)C)C(=O)N2)C(N)=O)(COCCC(=O)NCCOCCOCCOCCOCCC(=O)NCCCC[C@@H](NC(=O)CNC(=O)[C@@H](CC(C)C)NC(=O)[C@@H](CCC(=O)O)NC(=O)[C@H]2CSSC[C@@H](NC(=O)[C@H]3CCCN3C(=O)[C@@H](Cc3c[nH]cn3)NC(C)=O)C(=O)N[C@H](CC(=O)O)C(=O)N[C@H](Cc3ccc(O)cc3)C(=O)N3CCC[C@@H]3C(=O)N[C@H](CCC(=O)O)C(=O)N[C@H](Cc3c[nH]c4ccccc34)C(=O)N[C@H](CCC(N)=O)C(=O)N[C@H](Cc3c[nH]c4ccccc34)C(=O)N[C@H](CC(C)C)C(=O)N2)C(N)=O)COCCC(=O)NCCOCCOCCOCCOCCC(=O)NCCCC[C@@H](NC(=O)CNC(=O)[C@@H](CC(C)C)NC(=O)[C@@H](CCC(=O)O)NC(=O)[C@H]2CSSC[C@@H](NC(=O)[C@H]3CCCN3C(=O)[C@@H](Cc3c[nH]cn3)NC(C)=O)C(=O)N[C@H](CC(=O)O)C(=O)N[C@H](Cc3ccc(O)cc3)C(=O)N3CCC[C@@H]3C(=O)N[C@H](CCC(=O)O)C(=O)N[C@H](Cc3c[nH]c4ccccc34)C(=O)N[C@H](CCC(N)=O)C(=O)N[C@H](Cc3c[nH]c4ccccc34)C(=O)N[C@H](CC(C)C)C(=O)N2)C(N)=O)C1=O (stereo partly shown) [C18-PIE12-trimer]
bioavailability (SC, 1.0 mg/kg, plasma, median): 93% | AUC(0-inf) (IV, 1.0 mg/kg, plasma, median): 0.766 µM·h | C0 (IV, 1.0 mg/kg, plasma, median): 900 nM | clearance (IV, 1.0 mg/kg, plasma, median): 2.5 mL/min/kg | half-life (IV, 1.0 mg/kg, plasma, median): 1.05 h | Vd (IV, 1.0 mg/kg, plasma, median): 0.23 L/kg | AUC(0-inf) (SC, 1.0 mg/kg, plasma, median): 0.713 µM·h | Cmax (SC, 1.0 mg/kg, plasma, median): 196 nM | Tmax (SC, 1.0 mg/kg, plasma, median): 2 h | half-life (SC, 1.0 mg/kg, plasma, median): 1.39 h

CCCCCCCCCCCCCCCC(=O)N[C@H](CSC1CC(=O)N(CCC(=O)NCCOCCOCCOCCOCCOCCOCCOCCOCCOCCOCCOCCOCCOCCOCCOCCOCCOCCOCCOCCOCCOCCOCCOCCOCCC(=O)NC(COCCC(=O)NCCOCCOCCOCCOCCC(=O)NCCCC[C@@H](NC(=O)CNC(=O)[C@@H](CC(C)C)NC(=O)[C@@H](CCC(=O)O)NC(=O)[C@H]2CSSC[C@@H](NC(=O)[C@H]3CCCN3C(=O)[C@@H](Cc3c[nH]cn3)NC(C)=O)C(=O)N[C@H](CC(=O)O)C(=O)N[C@H](Cc3ccc(O)cc3)C(=O)N3CCC[C@@H]3C(=O)N[C@H](CCC(=O)O)C(=O)N[C@H](Cc3c[nH]c4ccccc34)C(=O)N[C@H](CCC(N)=O)C(=O)N[C@H](Cc3c[nH]c4ccccc34)C(=O)N[C@H](CC(C)C)C(=O)N2)C(N)=O)(COCCC(=O)NCCOCCOCCOCCOCCC(=O)NCCCC[C@@H](NC(=O)CNC(=O)[C@@H](CC(C)C)NC(=O)[C@@H](CCC(=O)O)NC(=O)[C@H]2CSSC[C@@H](NC(=O)[C@H]3CCCN3C(=O)[C@@H](Cc3c[nH]cn3)NC(C)=O)C(=O)N[C@H](CC(=O)O)C(=O)N[C@H](Cc3ccc(O)cc3)C(=O)N3CCC[C@@H]3C(=O)N[C@H](CCC(=O)O)C(=O)N[C@H](Cc3c[nH]c4ccccc34)C(=O)N[C@H](CCC(N)=O)C(=O)N[C@H](Cc3c[nH]c4ccccc34)C(=O)N[C@H](CC(C)C)C(=O)N2)C(N)=O)COCCC(=O)NCCOCCOCCOCCOCCC(=O)NCCCC[C@@H](NC(=O)CNC(=O)[C@@H](CC(C)C)NC(=O)[C@@H](CCC(=O)O)NC(=O)[C@H]2CSSC[C@@H](NC(=O)[C@H]3CCCN3C(=O)[C@@H](Cc3c[nH]cn3)NC(C)=O)C(=O)N[C@H](CC(=O)O)C(=O)N[C@H](Cc3ccc(O)cc3)C(=O)N3CCC[C@@H]3C(=O)N[C@H](CCC(=O)O)C(=O)N[C@H](Cc3c[nH]c4ccccc34)C(=O)N[C@H](CCC(N)=O)C(=O)N[C@H](Cc3c[nH]c4ccccc34)C(=O)N[C@H](CC(C)C)C(=O)N2)C(N)=O)C1=O)C(=O)O (stereo partly shown) [Palm-PIE12-trimer]
AUC(0-inf) (IV, 1.2 mg/kg, plasma, median): 2.24 µM·h | C0 (IV, 1.2 mg/kg, plasma, median): 2240 nM | clearance (IV, 1.2 mg/kg, plasma, median): 1.02 mL/min/kg | half-life (IV, 1.2 mg/kg, plasma, median): 1.83 h | Vd (IV, 1.2 mg/kg, plasma, median): 0.14 L/kg | AUC(0-inf) (SC, 1.2 mg/kg, plasma, median): 2.31 µM·h | Cmax (SC, 1.2 mg/kg, plasma, median): 585 nM | Tmax (SC, 1.2 mg/kg, plasma, median): 1 h | half-life (SC, 1.2 mg/kg, plasma, median): 2.23 h | increase of IV half-life vs PIE12-trimer (IV): > 3 fold | reduction of clearance vs PIE12-trimer (IV): ~14 fold | bioavailability upon SC dosing, in words (SC): fully bioavailable | F (SC, 1.2 mg/kg, plasma, median): 103% | extension of SC (apparent) half-life vs PIE12-trimer (SC, terminal phase elimination): ~3 fold
